For the test, the target named is T1, GST-MKK7 (Homo sapiens, UniProt O14733, Q133P/Q94H).
T1 construct: made in house; host or cells: E. coli BL21
T1 sequence (O14733 1-401 Q94H/Q133P limits assumed): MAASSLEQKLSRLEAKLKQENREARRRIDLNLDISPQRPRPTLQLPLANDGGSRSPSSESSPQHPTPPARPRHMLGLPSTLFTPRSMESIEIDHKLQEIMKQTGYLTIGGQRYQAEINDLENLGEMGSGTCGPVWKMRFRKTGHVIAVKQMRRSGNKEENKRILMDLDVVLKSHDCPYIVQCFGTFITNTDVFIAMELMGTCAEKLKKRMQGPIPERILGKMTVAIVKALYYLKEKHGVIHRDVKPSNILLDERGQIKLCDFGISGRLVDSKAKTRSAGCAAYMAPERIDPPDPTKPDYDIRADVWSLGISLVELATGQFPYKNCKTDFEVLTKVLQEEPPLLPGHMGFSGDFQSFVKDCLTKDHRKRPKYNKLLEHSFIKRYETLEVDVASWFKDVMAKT
Briefly: In vitro pull-down with purified proteins: His6/T7-tagged proteins binding to GST-MKK7. Particulars: JIP1 used under non-saturating conditions, read-out: half maximum binding (HMB) value for binding to GST-MKK7. From the text: Protein levels are shown (bottom). b, g, Coomassie brilliant blue staining (CS) showing purity of the proteins used in (c) and (d, e), respectively. c, In vitro pull-down assays with purified proteins showing direct interaction between His6/T7-Gadd45β (His6disclosed as SEQ ID NO: 46) and GST-MKK7. Precipitated GST proteins and bound His6/T7-tagged proteins(His6 disclosed as SEQ ID NO: 46) were visualized by CS and Western blotting (WB) with anti-T7 antibodies, respectively. Inputs of His6/T7-tagged proteins (His6 disclosed as SEQ ID NO: 46) are indicated. The fraction of His6/T7-Gadd45β (His6 disclosed as SEQ ID NO: 46) and His6/T7-JIP1 (His6 disclosed as SEQ ID NO: 46) binding to GST-MKK7 (expressed as arbitrary units [a.u.]; left) was calculated relatively to a standard curve generated with known protein concentrations^19. d, e, Kinase assays showing specific inhibition of active MKK7 by purified GST-Gadd45β and His6-Gadd45β (His6 disclosed as SEQ ID NO: 46), in vitro. […]
Interaction of endogenous Gadd45β and MKK7 was detected readily (FIG. 28a). […]
GST precipitations with in vitro-translated proteins or purified proteins (FIG. 26-30), and kinase assays were performed. […] MKK7 phosphorylation was monitored by performing immunoprecipitations with anti-P-MKK7 antibodies (developed at Cell Signaling) followed by Western blots with anti-total MKK7 antibodies. […]

B1: Gadd45β: purified recombinant His6-tagged Gadd45β protein; also used generically for the recombinant Gadd45β proteins (protein, UniProt O75293 1-160, looked up)
Growth arrest and DNA …: MTLEELVACDNAAQKMQTVTAAVEELLVAAQRQDRLTVGVYESAKLMNVDPDSVVLCLLAIDEEEEDDIALQIHFTLIQSFCCDNDINIVRVSGMQRLAQLLGEPAETQGTTEARDLHCLLVTNPHTDAWKSHGLVEVASYCEESRGNNQWVPYISLQER
modifications: His6 tag
notes: purified recombinant His6-tagged Gadd45β protein; also used generically for the recombinant Gadd45β proteins
On to B1, for which the Kd was about 390 nM.

The values are drawn from patent publication US7326418B2, “Identification of novel factors that block programmed cell death or apoptosis by targeting JNK” (University of Chicago, priority 2001, dated 2008).
